Data: patent publication US7314754B2, “Polynucleotide encoding the hOT7T175 G protein coupled receptor” (Takeda Pharmaceutical Company Limited, priority 1998, dated 2008)
No end group written: not given here.

Biological target: T1, rOT7T175 (Rattus norvegicus, UniProt Q924U1)
T1 construct: expressed in transfected cells
Assay: Measurement of intracellular Ca ion concentration-increasing activity using FLIPR
Assay type: cell-based
Conditions: rOT7T175-23 cells; final peptide concentration 1×10^−5 M to 1×10^−10 M
Protocol: The stable expression cell line rOT7T175 was obtained by transduction of expression plasmid pAK-rOT175 for animal cell into CHO/dhfr^− cells, using CellPhect Transfection Kit (Amersham Pharmacia Biotech, Inc.). First, […] of Buffer A (attached to CellPhect Transfection Kit) was added to […] of plasmid DNA dissolved in […] of distilled water followed by stirring. After the mixture was settled for 10 minutes, […] of Buffer B (attached to CellPhect Transfection Kit) was added to the mixture, which was vigorously stirred to form liposomes containing the DNA. Then 4×10^5 CHO/dhfr^− cells (obtained from ATCC) were inoculated on a 60 mm Petri dish. After culturing the cells in Ham's F-12 medium (Nissui Seiyaku Co., Ltd.) supplemented with 10% fetal bovine serum (BIO WHITTAKER, Inc.) at 37° C. for 2 days in 5% carbon dioxide gas, […] of the liposomes were dropwise added to the cells in the Petri dish. After culturing the cells at 37° C. for 6 hours in 5% carbon dioxide gas, the cells were washed twice with serum-free Ham's F-12 medium and 3 ml of 15% glycerol was added to the cells in the Petri dish followed by treatment for 2 minutes. […]
The intracellular Ca ion concentration-increasing activity of the synthetic peptides obtained in (1-1) described above in rOT7T175-23 and ETA24was determined, using FLIPR (Molecular Devices, Inc.). […]

T1 sequence (Q924U1 whole entry R383V): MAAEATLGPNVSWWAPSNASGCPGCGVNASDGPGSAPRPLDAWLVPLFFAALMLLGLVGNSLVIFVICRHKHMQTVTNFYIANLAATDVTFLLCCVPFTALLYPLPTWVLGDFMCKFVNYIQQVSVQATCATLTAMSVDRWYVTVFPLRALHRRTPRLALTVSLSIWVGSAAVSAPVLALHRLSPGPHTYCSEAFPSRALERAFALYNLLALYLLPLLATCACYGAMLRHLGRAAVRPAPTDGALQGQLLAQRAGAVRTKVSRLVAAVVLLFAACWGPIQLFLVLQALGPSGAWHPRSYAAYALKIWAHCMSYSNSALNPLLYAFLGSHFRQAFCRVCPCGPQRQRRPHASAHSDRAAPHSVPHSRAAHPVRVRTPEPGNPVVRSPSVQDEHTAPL

intracellular Ca ion concentration-increasing activity, comparison of dose response curves (FIG. 9): highest activity
Substance: PEPTIDE (40-54): C-terminal peptide of PEPTIDE (1-54), residues 40-54, synthesized on p-methyl BHA resin (KDLPNYNWNSFGLRF-NH2)
